Source: patent publication US20240398929A1

What was measured:
[1] = target: GP[change] with 8D insertion after residue A309 (Ebola virus)
[2] = target: GP[change] with 12D insertion after residue A309 (Ebola virus)

mAb114 (antibody)
fold increase in binding against WT-GPΔmucin [1]: 2 fold | fold increase in binding against WT-GPΔmucin [2]: 2 fold
